# Measured values from article PMC7946950.
# Like-named read-outs stand apart in the source and are kept apart here.
# What was measured:
# [1] = target: Coagulation Factor XIa (human) (UniProt P03951); test: kinetics of protease inhibition (second order rate constant k2, discontinuous method, residual protease activity); protease 5-75 nM, at least 10:1 molar ratio of AAT variant to protease (pseudo-first order), 37 °C, PPNE buffer (20 mM sodium phosphate pH 7.4, 100 mM NaCl, 0.1 mM EDTA, 0.1% polyethylene glycol 8000)
# thrombin (human) [2] = test: as above
# [3] = target: Coagulation Factor XIa (human) (UniProt P03951); test: as above; remark: listed apart in the source
# thrombin (human) [4] = test: as above; remark: listed apart in the source
# [5] = target: Coagulation Factor XIa (human) (UniProt P03951); test: as above; remark: listed apart in the source
# [6] = target: Coagulation Factor XIa (human) (UniProt P03951); test: stoichiometry of inhibition (SI) titration, residual FXIa activity; varying ratios of AAT variant to FXIa incubated at ambient temperature for 2 h; residual FXIa activity determined at 37 °C; regression to zero activity
# Factor Xa (human) = test: kinetics of protease inhibition (second order rate constant k2, discontinuous method, residual protease activity); protease 5-75 nM, at least 10:1 molar ratio of AAT variant to protease (pseudo-first order), 37 °C, PPNE buffer (20 mM sodium phosphate pH 7.4, 100 mM NaCl, 0.1 mM EDTA, 0.1% polyethylene glycol 8000)
# [7] = target: Activated Protein C (human); test: as above
# kallikrein (human) = test: as above
# Factor XIIa (human) = test: as above
k2 (second order rate constant of inhibition) [1],k2 (second order rate constant of inhibition) [5] [M⁻¹ s⁻¹],stoichiometry of inhibition (SI) [6],Sequence,also measured
180000 M⁻¹ s⁻¹,,,"AAT M358R (alpha-1 antitrypsin M358R), arabinose-inducible system (natural protein)",k2 (second order rate constant of inhibition) (thrombin (human) [2]): 160000 M⁻¹ s⁻¹; k2 (second order rate constant of inhibition) [3]: 190000 M⁻¹ s⁻¹
45000,,,"AAT M358R/PRSTE, from the pBAD P2'/P3' bacterial expression library (designed binder)",
,41000,3.3,"AAT M358R/PRSTE, cleavable GST fusion system (designed binder)",k2 (second order rate constant of inhibition) (thrombin (human) [4]): 1200 M⁻¹ s⁻¹
38000,,,"AAT M358R/PRSLD, from the pBAD P2'/P3' bacterial expression library (designed binder)",
,34000,12.7,"AAT M358R/HASTGQ, cleavable GST fusion system (designed binder)",
,,,"AAT M358R/QSIIS, arabinose-inducible system (designed binder)",k2 (second order rate constant of inhibition) (thrombin (human) [2]): 100000 M⁻¹ s⁻¹
170000 M⁻¹ s⁻¹,160000,2.1,"AAT M358R (alpha-1 antitrypsin M358R), cleavable GST fusion system (natural protein)",k2 (second order rate constant of inhibition) (thrombin (human) [4]): 210000 M⁻¹ s⁻¹; k2 (second order rate constant of inhibition) (Factor Xa (human)): 35000 M⁻¹ s⁻¹; k2 (second order rate constant of inhibition) [7]: 40000 M⁻¹ s⁻¹; k2 (second order rate constant of inhibition) (kallikrein (human)): 40000 M⁻¹ s⁻¹; k2 (second order rate constant of inhibition) (Factor XIIa (human)): 23000 M⁻¹ s⁻¹
